± gives the standard deviation.
Assay: protein stability index of a GFP-peptide fusion (GPS, HEK-293T) (PSI 1-6); higher = more stable
Details: c terminus: a fixed tail appended
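Also: 24-mer peptide tiles fused after GFP, lentivirally expressed, FACS-sorted into six equal bins by GFP/DsRed ratio, decoded by Illumina sequencing, PSI is the read-weighted mean bin number.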

Sequence TRKHHCRRCGKCFCDRCCSQKVPL [ZFYVE21] has a protein stability index (treatment: DMSO) of 3.31 ± 0.27 and a protein stability index (treatment: MLN4924 1 uM, 8 h) of 3.58 ± 0.19.
TRRAQADLAYQLQVAKTKQQIEEQ [FLOT1] gave a protein stability index (treatment: DMSO) of 4.82 ± 0.19 and a protein stability index (treatment: MLN4924 1 uM, 8 h) of 4.8 ± 0.2.
For TSALFWEQHDLVYGDWTSGENSDG [CLPTM1], the protein stability index (treatment: DMSO) was 4.17 ± 0.18 and the protein stability index (treatment: MLN4924 1 uM, 8 h) was 4.34 ± 0.41.
For TSLRLVFLLAFGLMIIVCIDQWKN [RETREG3], the protein stability index (treatment: DMSO) was 2.21 ± 0.3 and the protein stability index (treatment: MLN4924 1 uM, 8 h) was 2.03 ± 0.17.
Sequence TSVQEADETTRSDISERPSVDDIE [C2CD2L] has a protein stability index (treatment: DMSO) of 5.57 ± 0.27 and a protein stability index (treatment: MLN4924 1 uM, 8 h) of 5.61 ± 0.19.
TVDKEVEIRKKVLKIYNKREEDFP [MNAT1] showed a protein stability index (treatment: DMSO) of 4.08 ± 0.17 and a protein stability index (treatment: MLN4924 1 uM, 8 h) of 4.27 ± 0.12.
Work on TVILIESTNEITYGLPIMVTLMVA [CLCN6] yielded a protein stability index (treatment: DMSO) of 3.47 ± 0.47 and a protein stability index (treatment: MLN4924 1 uM, 8 h) of 3.32 ± 0.29.
In the case of TVPKNDADDESETPEELEEEIPVV [GLT8D2], the protein stability index (treatment: DMSO) is reported as 5.63 ± 0.12 and the protein stability index (treatment: MLN4924 1 uM, 8 h) is reported as 5.53 ± 0.26.
Work on TVQEAATSRRARASKKTAQPWVEV [MFSD9] yielded a protein stability index (treatment: DMSO) of 3.22 ± 0.14 and a protein stability index (treatment: MLN4924 1 uM, 8 h) of 3.1 ± 0.25.
Work on TYKHINEVYYAKKKRRAQQAPPQD [DYRK1B] yielded a protein stability index (treatment: DMSO) of 3.7 ± 0.085 and a protein stability index (treatment: MLN4924 1 uM, 8 h) of 3.66 ± 0.21.
TYRKVMNWKETLVFPPEVPISEKA [STK38L] showed a protein stability index (treatment: DMSO) of 3.09 ± 0.29 and a protein stability index (treatment: MLN4924 1 uM, 8 h) of 3.24 ± 0.29.
TYSGKAADVWSLGVMLYTLLVGRY [TRIB1] showed a protein stability index (treatment: DMSO) of 2.42 ± 0.36 and a protein stability index (treatment: MLN4924 1 uM, 8 h) of 2.21 ± 0.042.
Sequence VAAAAAATTAATAAATTTTTTSAA [SNAP91] has a protein stability index (treatment: DMSO) of 5.39 ± 0.13 and a protein stability index (treatment: MLN4924 1 uM, 8 h) of 5.34 ± 0.068.
Work on VALLTGKFSNIVDKFVIVDCRYPY [CDC25B] yielded a protein stability index (treatment: DMSO) of 2.45 ± 1.7 and a protein stability index (treatment: MLN4924 1 uM, 8 h) of 2.59 ± 1.2.
For VAPPAKQAQQKKAPAKKANSTTTA [BRD3], the protein stability index (treatment: DMSO) was 5.11 ± 0.26 and the protein stability index (treatment: MLN4924 1 uM, 8 h) was 5.26 ± 0.13.
Work on VAQFVLTEGNPRWEQTHLTYRIEN [MMP1] yielded a protein stability index (treatment: DMSO) of 2.35 ± 0.36 and a protein stability index (treatment: MLN4924 1 uM, 8 h) of 2.35 ± 0.43.
For VAVCPIPAAGLDVTQPCGDCGTIQ [HDAC6], the protein stability index (treatment: DMSO) was 3.46 ± 0.24 and the protein stability index (treatment: MLN4924 1 uM, 8 h) was 3.81 ± 0.41.
In the case of VCDSCHEAITDEERAPTATFHDSK [WDFY2], the protein stability index (treatment: DMSO) is reported as 5.02 ± 0.21 and the protein stability index (treatment: MLN4924 1 uM, 8 h) is reported as 5.16 ± 0.13.
For VCQEVLERSRDVVDDVSVSLRLWD [RHOBTB2], the protein stability index (treatment: DMSO) was 3.31 ± 0.19 and the protein stability index (treatment: MLN4924 1 uM, 8 h) was 3.44 ± 0.37.
For VDGVWTAQRPGITHGVGLVLRVEQ [SCNN1D], the protein stability index (treatment: DMSO) was 2.21 ± 0.35 and the protein stability index (treatment: MLN4924 1 uM, 8 h) was 2.44 ± 0.24.
Work on VDRWPAPVPGKTLHLPIMGVVMKV [DENND6A] yielded a protein stability index (treatment: DMSO) of 2.63 ± 0.39 and a protein stability index (treatment: MLN4924 1 uM, 8 h) of 2.4 ± 0.36.
VDYPLHDLVLHTNYTATVRGLRGP [TNXB] showed a protein stability index (treatment: DMSO) of 2.71 ± 0.19 and a protein stability index (treatment: MLN4924 1 uM, 8 h) of 2.81 ± 0.24.
Sequence VEEGNVQTLLPAACLLQLAEIQEA [KLHL20] has a protein stability index (treatment: DMSO) of 3.58 ± 0.52 and a protein stability index (treatment: MLN4924 1 uM, 8 h) of 3.84 ± 0.43.
With VETLVKKKIPIISNAMLVGDKLKF [ACSBG2] the protein stability index (treatment: DMSO) was 2.27 ± 0.38 and the protein stability index (treatment: MLN4924 1 uM, 8 h) was 2.61 ± 0.27.
In the case of VFITYSMDTAMEVVKFVNFLLVNG [TRAF3IP2], the protein stability index (treatment: DMSO) is reported as 3.39 ± 0.062 and the protein stability index (treatment: MLN4924 1 uM, 8 h) is reported as 2.06 ± 0.64.
With VGVFLDFESGSVSFLNVTKSSLIW [TRIM43] the protein stability index (treatment: DMSO) was 3.08 ± 0.73 and the protein stability index (treatment: MLN4924 1 uM, 8 h) was 2.506 ± 0.003.
Work on VIEPVVENSGILQGKLIKRQRLAK [EFHC1] yielded a protein stability index (treatment: MLN4924 1 uM, 8 h) of 3.68 ± 0.65.
In the case of VILGVTNPFFAKTLQHWPHIIRIG [DENND6A], the protein stability index (treatment: DMSO) is reported as 2.94 ± 0.67 and the protein stability index (treatment: MLN4924 1 uM, 8 h) is reported as 2.78 ± 0.46.
Sequence VINQADVRNNRSIIKQLKDVFERD [PLD5] has a protein stability index (treatment: DMSO) of 3.2 ± 0.2 and a protein stability index (treatment: MLN4924 1 uM, 8 h) of 3.29 ± 0.35.
In the case of VIPFKVDTILKYLKDHFSHLLGIP [IQUB], the protein stability index (treatment: DMSO) is reported as 2.92 ± 0.12 and the protein stability index (treatment: MLN4924 1 uM, 8 h) is reported as 2.65 ± 0.18.
VITLDPQTASRSLVLSEDRKSVRY [TRIM15] gave a protein stability index (treatment: DMSO) of 3.44 ± 0.2 and a protein stability index (treatment: MLN4924 1 uM, 8 h) of 3.64 ± 0.14.
Sequence VKRLLRSDAEAVSTRWEVIAEDGT [TAF7L] has a protein stability index (treatment: DMSO) of 3.69 ± 0.3 and a protein stability index (treatment: MLN4924 1 uM, 8 h) of 3.73 ± 0.64.
VLALRNMKNLLFSEMWDIFLVRLL [MFSD9] gave a protein stability index (treatment: DMSO) of 2.13 ± 0.44 and a protein stability index (treatment: MLN4924 1 uM, 8 h) of 2.14 ± 0.49.
Work on VLDLSKSLSAALLTAALLTFDTGC [POMT2] yielded a protein stability index (treatment: DMSO) of 3.38 ± 0.38 and a protein stability index (treatment: MLN4924 1 uM, 8 h) of 2.98 ± 0.2.
Work on VLEEQLVKAKEQIENYKKQTRNGL [FUT8] yielded a protein stability index (treatment: DMSO) of 3.77 ± 0.1 and a protein stability index (treatment: MLN4924 1 uM, 8 h) of 3.89 ± 0.35.
With VLKTRMALRKTGQYSGMLDCARRI [SLC25A25] the protein stability index (treatment: DMSO) was 2.53 ± 0.17 and the protein stability index (treatment: MLN4924 1 uM, 8 h) was 2.78 ± 0.18.
VLLTQIESKKHQVETAFERLQQEL [TRIM15] gave a protein stability index (treatment: DMSO) of 2.73 ± 0.27 and a protein stability index (treatment: MLN4924 1 uM, 8 h) of 2.77 ± 0.38.
With VLSSWSRAFVSIQEEMAEDPLTYK [RHOBTB2] the protein stability index (treatment: DMSO) was 2.89 ± 0.14 and the protein stability index (treatment: MLN4924 1 uM, 8 h) was 3.17 ± 0.6.
Sequence VLTDSEGWILIDRCGKHFGTILNY [KCTD10] has a protein stability index (treatment: DMSO) of 2.37 ± 0.59 and a protein stability index (treatment: MLN4924 1 uM, 8 h) of 2.31 ± 0.2.
In the case of VLTEPILIETYTGLMSFIGNRNKL [TPRG1], the protein stability index (treatment: DMSO) is reported as 2.21 ± 0.36 and the protein stability index (treatment: MLN4924 1 uM, 8 h) is reported as 2.27 ± 0.51.
For VLTIALPVPVIVSNFNYFYHRETE [KCNA1], the protein stability index (treatment: DMSO) was 3.02 ± 0.47 and the protein stability index (treatment: MLN4924 1 uM, 8 h) was 3.06 ± 0.41.
VLVNLVPAHKNLNKQAYDLAKALL [PDS5B] gave a protein stability index (treatment: DMSO) of 3.47 ± 0.59 and a protein stability index (treatment: MLN4924 1 uM, 8 h) of 3.07 ± 0.89.
Sequence VMAYDRYMAICKPLHELITMNRRV [OR4A15] has a protein stability index (treatment: DMSO) of 2.25 ± 0.35 and a protein stability index (treatment: MLN4924 1 uM, 8 h) of 2.23 ± 0.37.
VNCISPLKYFSDFRPYFTIHDSEF [DENND6A] gave a protein stability index (treatment: DMSO) of 2.27 ± 0.68 and a protein stability index (treatment: MLN4924 1 uM, 8 h) of 1.92 ± 0.19.
VNEFSLKGVDFQKFCMNGAALCAL [ETS1] gave a protein stability index (treatment: DMSO) of 2.32 ± 0.76 and a protein stability index (treatment: MLN4924 1 uM, 8 h) of 2.3 ± 0.033.

Source: the supplement of paper PMC10567573
